Test results reported in paper PMC8213806.

What was measured:
[1] = target: TcdB2 (R20292 strain), recombinant full-length, from Bacillus megaterium (Clostridioides difficile (R20292 strain as printed))
[2] = target: Repeat1-Fc (CSPG4 Repeat1, residues 410–551, fused to the N-terminus of human IgG1 Fc) (human) (UniProt Q6UVK1); assay: BLI; Repeat1-Fc (50 nM) immobilised on Anti-hIgG-Fc biosensors, TcdB1 or TcdB2 in solution; 20 mM HEPES, 400 mM NaCl, pH 7.5, 10 mM CaCl2, 0.1% Tween-20, 0.5% BSA; 1:1 binding model
Repeat1-Fc (CSPG4 Repeat1, residues 410–551, fused to the N-terminus of human IgG1 Fc) (human), sequence (Q6UVK1 410-551): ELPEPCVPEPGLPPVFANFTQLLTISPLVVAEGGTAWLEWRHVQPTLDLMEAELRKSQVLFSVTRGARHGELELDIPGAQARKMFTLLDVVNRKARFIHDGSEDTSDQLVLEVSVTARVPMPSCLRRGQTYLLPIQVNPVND

Repeat1-Fc (CSPG4 Repeat1, residues 410–551, fused to the N-terminus of human IgG1 Fc), sequence (Q6UVK1 410-551): as above

Substance	neutralisation in the cell-rounding assay on HeLa cells, 24 h, Repeat1-Fc at 2 µM; cells kept from rounding [1] [%]	Kd [2] [nM]	koff [2] [s⁻¹]	kon [2] [M⁻¹ s⁻¹]
Repeat1-Fc (CSPG4 Repeat1, residues 410–551, fused to the N-terminus of human IgG1 Fc) (from UniProt Q6UVK1 410-551) (Fc fusion)	40	–	–	–
TcdB2 (R20292 strain), recombinant full-length, from Bacillus megaterium (natural protein)	–	5.4	4.63e-05	8340
